What is called EC50 is the concentration needed to bring the measured effect to its halfway point. The Kd is the equilibrium constant for the complex coming apart.

No end group written: not given here.

This is an account of results in US20250269025A1 (AVENCELL THERAPEUTICS, published 2025).

The target in assay [1] is T1, CD123 on CD123 positive AML cells (Oci-AML3, Molm-13, MV4-11, primary AML cells) (human, UniProt P26951 19-378).
T1 construct: whole, on cells; Endogenous CD123 on human AML cell lines; also called target antigen CD123
The experiment in a line: cellular binding assay per table caption, Molm-13 cells; Molm-13 cells.

The target in assay [2] is T1, CD123 on CD123 positive AML cells …. Kind of assay: cellular binding assay per table caption, Oci-AML3 cells; Oci-AML3 cells.
In assay [3] the target is T2, human CD123-Fc (human, UniProt P26951 19-305, limits assumed).
T2 construct: Coupled to a CM5 sensor chip; also called soluble recombinant CD123; not shown: Fc part
T2 sequence (looked up): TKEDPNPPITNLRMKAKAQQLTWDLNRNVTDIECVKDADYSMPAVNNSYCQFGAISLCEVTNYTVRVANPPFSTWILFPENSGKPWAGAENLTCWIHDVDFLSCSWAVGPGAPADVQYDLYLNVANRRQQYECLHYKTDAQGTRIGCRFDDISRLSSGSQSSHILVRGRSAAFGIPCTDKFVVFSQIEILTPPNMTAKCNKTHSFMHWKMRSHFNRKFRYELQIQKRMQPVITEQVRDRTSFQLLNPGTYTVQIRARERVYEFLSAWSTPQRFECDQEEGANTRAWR
Kind of assay: SPR, Biacore X100, human CD123-Fc on CM5 chip, 1:1 model; KD CD123 (first number of the cell). As to the method:
(§1) Binding of different variants of the targeting module according to the invention was analyzed by SPR measurements using human CD123-Fc coupled to a CM5 sensor chip on a Biacore X100 device (FIG. 2). Targeting modules were purified monomer except for the targeting module according to SEQ ID No. 8. […] For data fitting and KD calculation a 1:1 binding model was applied.
On the technique in general: SPR reads the build-up and loss of mass on a sensor chip optically.

The target in assay [4] is T3, La epitope 5B9 (SEQ ID No. 28) fused to human Fc domain (human, also: fused to human Fc domain, order, isotype, linker not given here).
T3 construct: Coupled to a CM5 sensor chip; not shown: human Fc domain
T3 chain: KPLPEVTDEY
The experiment in a line: SPR, Biacore X100, La epitope 5B9-human Fc on CM5 chip; KD 5B9 (second number of the cell). As to the method:
(§2) Furthermore, binding of different variants of the targeting module according to the invention was analyzed using the La epitope 5B9 (SEQ ID No. 28) fused to human Fc domain which was coupled to a CM5 sensor chip on a Biacore X100 device (FIG. 3). The targeting modules were purified monomers. The targeting modules were concentrated between 2.47 to 200 nM and measured in technical duplicates. For data fitting and KD calculation a two-state-reaction binding model was applied.

The target of assay [5] is T1, CD123 on CD123 positive AML cells …. Kind of assay: flow cytometry on Oci-AML3 cells, anti-His-PE detection. Half-maximal binding from a four-parameter fit of gMFI. Unit taken from the concentration axis [M]. The curve has no upper plateau in the range shown. As to the method: Cellular binding of CD123-binding targeting modules (TM) was tested on CD123 positive target cell lines Oci-AML3 and Molm-13: A) SEQ ID No. 5 to Oci-AML3, B) SEQ ID No. 9 to Oci-AML3, C) SEQ ID No. 4 to Molm-13 and D) SEQ ID No. 6 to Molm-13. The affinity of TMs was analyzed by flow cytometry. The TMs were titrated on an AML cell lines and then detected by a mouse anti-His-tag antibody conjugated to phycoerythrin.
Different concentrations of R-TM123 were incubated with cells, washed and quantified. A dose-response curve was obtained when the geometric mean fluorescence (MFI) was plotted against the TM concentration.
In general terms: Flow cytometry measures light scatter and fluorescence of single cells or particles in a stream.

The target of assay [6] is T2, human CD123-Fc. The experiment in a line: SPR, Biacore X100, human CD123-Fc on CM5 chip, 1:1 model. As to the method:
as §1

The target of assay [7] is T2, human CD123-Fc. The experiment in a line: SPR, Biacore X100, human CD123-Fc on CM5 chip, 1:1 model; TM not purified monomer. As to the method: as §1
Assay [8] concerns the target T3, La epitope 5B9 (SEQ ID No. 28) fused to …. The experiment in a line: SPR, Biacore X100, La epitope 5B9-human Fc on CM5 chip. As to the method: as §2

B1: targeting module according to SEQ ID No. 2 (reference) (bispecific antibody)
chain: EVQLQQSGPELVKPGASVKMSCKASGYTFTDYYMKWVKQSHGKSLEWIGDIIPSNGATFYNQKFKGKATLTVDRSSSTAYMHLNSLTSEDSAVYYCTRSHLLRASWFAYWGQGTLVTVSAASGGGGSGGGGSGGGGSDFVMTQSPSSLTVTAGEKVTMSCKSSQSLLNSGNQKNYLTWYLQKPGQPPKLLIYWASTRESGVPDRFTGSGSGTDFTLTISSVQAEDLAVYYCQNDYSYPYTFGGGTKLEIKAAARGQVQLVQSGAEVKKPGASVKVSCKASGYTFTHYYIYWVRQAPGQGLEWMGGVNPSNGGTHFNEKFKSRVTMTRDTSISTAYMELSRLRSDDTAVYYCARSEYDYGLGFAYWGQGTLVTVSSGGGGSGGGGSGGGGSDIVMTQSPDSLAVSLGERATINCKSSQSLLNSRTPKNYLAWYQQKPGQPPKLLIYWASTRKSGVPDRFSGSGSGTDFTLTISSLQAEDVAVYYCKQSYNLLTFGGGTKVEIKGPEQKLISEEDLNSAVDHHHHHH
notes: also called muCD123 + 5B9-VH-VL
B1: the EC50 in assay [1] is 2.3 pM; in assay [2], 3.2 pM. In addition, the Kd with human CD123-Fc [3] worked out at 227 pM; in assay [4] it was 17000 pM.

B2: targeting module according to SEQ ID No. 9 (bispecific antibody)
chain: EVQLVQSGAEVKKPGASVKMSCKASGYTFTDYYMKWVKQAPGQGLEWIGDIIPSNGATFYNQKFKGRATLTVDRSTSTAYMELSSLRSEDTAVYYCTRSHLLRASWFAYWGQGTLVTVSSASGGGGSGGGGSGGGGSDFVMTQSPDSLAVSLGERATINCESSQSLLNTGNQKNYLTWYLQKPGQPPKLLIYWASTRESGVPDRFSGSGSGTDFTLTISSVQAEDVAVYYCQNDYSYPYTFGGGTKLEIKAAARGDIVMTQSPDSLAVSLGERATINCKSSQSLLNSRTPKNYLAWYQQKPGQPPKLLIYWASTRKSGVPDRFSGSGSGTDFTLTISSLQAEDVAVYYCKQSYNLLTFGGGTKVEIKGGGGSGGGGSGASAAGGGGSGGGGSQVQLVQSGAEVKKPGASVKVSCKASGYTFTHYYIYWVRQAPGQGLEWMGGVNPSNGGTHFNEKFKSRVTMTRDTSISTAYMELSRLRSDDTAVYYCARSEYDYGLGFAYWGQGTLVTVSSGGGGSHHHHHHHH
notes: also called huCD123_4 + 5B9-VLVH
With B2, the results for the Kd (in assay [5]; in the assay with human CD123-Fc [6]) were 6770 pM and 162 pM, respectively.

B3: targeting module according to SEQ ID No. 8 (bispecific antibody)
chain: GQVQLVQSGAEVKKPGASVKMSCKASGYTFTDYYMKWVKQAPGQGLEWIGDIIPSNGATFYNQKFKGRATLTVDKSTSTAYMELSSLRSEDTAVYYCTRSHLLRASWFAYWGQGTLVTVSSASGGGGSGGGGSGGGGSDFVMTQSPDSLAVSLGERATMNCKSSQSLLNSGNQKNYLTWYLQKPGQPPKLLIYWASTRESGVPDRFSGSGSGTDFTLTISSVQAEDVAVYYCQNDYSYPYTFGGGTKLEIKAAARGDIVMTQSPDSLAVSLGERATINCKSSQSLLNSRTPKNYLAWYQQKPGQPPKLLIYWASTRKSGVPDRFSGSGSGTDFTLTISSLQAEDVAVYYCKQSYNLLTFGGGTKVEIKGGGGSGGGGSGASAAGGGGSGGGGSQVQLVQSGAEVKKPGASVKVSCKASGYTFTHYYIYWVRQAPGQGLEWMGGVNPSNGGTHFNEKFKSRVTMTRDTSISTAYMELSRLRSDDTAVYYCARSEYDYGLGFAYWGQGTLVTVSSGGGGSHHHHHHHH
notes: also called huCD123_3 + 5B9-VLVH
As to B3, the Kd with human CD123-Fc [7] worked out at 131 pM.

B4: targeting module according to SEQ ID No. 3 (bispecific antibody)
chain: GQVQLVQSGAEVKKPGSSVKVSCKASGYTFTDYYIHWVRQAPGQGLEWMGDIIPSNGATFYNQRFKGRVTITADESTSTAYMELSSLRSEDTAVYYCTRSHLLRASWFAYWGQGTLVTVSSASGGGGSGGGGSGGGGSDIVMTQTPLSLSVTPGQPASISCRSSQSLLNSGNQKNYLTWYLQKPGQSPQLLIYWASTRFIGVPDRFSGSGSGTDFTLKISRVEAEDVGVYYCQNDYSYPYTFGQGTKLEIKAAARGDIVMTQSPDSLAVSLGERATINCKSSQSLLNSRTPKNYLAWYQQKPGQPPKLLIYWASTRKSGVPDRFSGSGSGTDFTLTISSLQAEDVAVYYCKQSYNLLTFGGGTKVEIKGGGGSGGGGSGASAAGGGGSGGGGSQVQLVQSGAEVKKPGASVKVSCKASGYTFTHYYIYWVRQAPGQGLEWMGGVNPSNGGTHFNEKFKSRVTMTRDTSISTAYMELSRLRSDDTAVYYCARSEYDYGLGFAYWGQGTLVTVSSGGGGSHHHHHHHH
notes: also called huCD123_1 + 5B9-VL-VH
Take B4: binding in assay [8] was put at a Kd of 2000 pM. Further, the EC50 in assay [2] was 23000 pM.
